# Experimental data published in publication PMC4182837, “BosR Functions as a Repressor of the ospAB Operon in Borrelia burgdorferi”.
# B1: cisI probe (dsDNA)
# DNA 1: TAATTAGAACCAAACTTAATTAAAACCAAACTTAATTGAAGTTATTATCATTTTATTTTTTTTCAATTTT
# DNA 2: AAAATTGAAAAAAAATAAAATGATAATAACTTCAATTAAGTTTGGTTTTAATTAAGTTTGGTTCTAATTA
# B2: cisII probe (dsDNA)
# DNA 1: TGTTATTTGTTAATCTTATAATATAATTATACTTGTATTAAGTTATATTAATATAAAAGGAGAATATATT
# DNA 2: AATATATTCTCCTTTTATATTAATATAACTTAATACAAGTATAATTATATTATAAGATTAACAAATAACA
# B3: IRs probe (ospC operator) (dsDNA)
# DNA 1: CAATATTTTTCAAATTCTTCAATATTTATTCAAGATATTGAAGAATTTGAAAAAATTATTTTTTCAAATA
# DNA 2: TATTTGAAAAAATAATTTTTTCAAATTCTTCAATATCTTGAATAAATATTGAAGAATTTGAAAAATATTG
# Molecular target: BosR (Borrelia burgdorferi B31, UniProt O51592 1-176)
# Test: EMSA; 400 nM BosR, 1 nM probe, 50 ug/ml salmon sperm DNA
# Settings: protein: recombinant; tags: C-terminal His6 (pET-23a); chain copies: 2; label: 5' digoxigenin on one strand
row,Binder,binding result
1,B1,binds
2,B2,binds
3,B3,no binding
